{
  "source": "patent US20250092135A1",
  "about": "(NANJING LEADS BIOLABS, published 2025)",
  "binders": {"B1": {"name": "anti-CD3/GPRC5D bispecific antibody Bi-29H6-6 (bispecific antibody)", "heavy 1": "QVQLVQSGAEVKKPGASVKVSCKASGYTFTTHYMYWVRQAPGQGLEWIGGINPSNEATNFNEKFKTKATLTVDKSTSTAYMELSSLRSEDTAVYYCTRVGGLSYTMDYWGQGTLVTVSSASTKGPSVFPLAPSSKSTSGGTAALGCLVKDYFPEPVTVSWNSGALTSGVHTFPAVLQSSGLYSLSSVVTVPSSSLGTQTYICNVNHKPSNTKVDKKVEPKSCDKTHTCPPCPAPEAAGGPSVFLFPPKPKDTLMISRTPEVTCVVVAVSHEDPEVKFNWYVDGVEVHNAKTKPREEQYNSTYRVVSVLTVLHQDWLNGKEYKCKVSNKALAAPIEKTISKAKGQPREPQVCTLPPSRDELTKNQVSLSCAVKGFYPSDIAVEWESNGQPENNYKTTPPVLDSDGSFFLVSKLTVDKSRWQQGNVFSCSVMHEALHNHYTQKSLSLSPGK", "heavy 2": "not shown", "light": "not shown", "notes": "G56E variant of the 29H6 VH; also called anti-GPRC5D/CD3 bifunctional antibody Bi-29H6-6"}, "B2": {"name": "control antibody REGN4018 (bispecific antibody, human IgG4 S228P, kappa)", "heavy 1": "QVQLVESGGGLVKPGGSLRLSCAASGFTFSNYYMSWVRQAPGKGLEWISYISGRGSTIFYADSVKGRITISRDNAKNSLFLQMNSLRAEDTAVYFCVKDRGGYSPYWGQGTLVTVSSASTKGPSVFPLAPCSRSTSESTAALGCLVKDYFPEPVTVSWNSGALTSGVHTFPAVLQSSGLYSLSSVVTVPSSSLGTKTYTCNVDHKPSNTKVDKRVESKYGPPCPPCPAPPVAGPSVFLFPPKPKDTLMISRTPEVTCVVVDVSQEDPEVQFNWYVDGVEVHNAKTKPREEQFNSTYRVVSVLTVLHQDWLNGKEYKCKVSNKGLPSSIEKTISKAKGQPREPQVYTLPPSQEEMTKNQVSLTCLVKGFYPSDIAVEWESNGQPENNYKTTPPVLDSDGSFFLYSRLTVDKSRWQEGNVFSCSVMHEALHNHYTQKSLSLSLGK", "heavy 2": "EVQLVESGGGLVQPGRSLRLSCAASGFTFDDYSMHWVRQAPGKGLEWVSGISWNSGSIGYADSVKGRFTISRDNAKNSLYLQMNSLRAEDTALYYCAKYGSGYGKFYYYGMDVWGQGTTVTVSSASTKGPSVFPLAPCSRSTSESTAALGCLVKDYFPEPVTVSWNSGALTSGVHTFPAVLQSSGLYSLSSVVTVPSSSLGTKTYTCNVDHKPSNTKVDKRVESKYGPPCPPCPAPPVAGPSVFLFPPKPKDTLMISRTPEVTCVVVDVSQEDPEVQFNWYVDGVEVHNAKTKPREEQFNSTYRVVSVLTVLHQDWLNGKEYKCKVSNKGLPSSIEKTISKAKGQPREPQVYTLPPSQEEMTKNQVSLTCLVKGFYPSDIAVEWESNGQPENNYKTTPPVLDSDGSFFLYSRLTVDKSRWQEGNVFSCSVMHEALHNRFTQKSLSLSLGK", "light": "not shown", "notes": "Derived from US20190389966A1; heavy chains REGN4018-8767pH and REGN4018-G20, light chain REGN4018-8767pL; also called positive control"}},
  "key": {"[1]": {"biological_target": "T1, Human CD3D & CD3E heterodimer protein (human, UniProt P07766 23-126; P04234 22-105)", "T1 construct": "Bought recombinant heterodimer; also called human CD3 protein (Sino Biological, Cat #CT038-H2508H)", "T1 sequence (P07766 23-126 limits assumed, chain 1 of 2)": "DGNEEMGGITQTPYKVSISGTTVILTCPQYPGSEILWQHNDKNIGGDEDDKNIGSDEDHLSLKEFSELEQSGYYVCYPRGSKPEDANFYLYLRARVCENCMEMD", "T1 sequence (P04234 22-105 limits assumed, chain 2 of 2)": "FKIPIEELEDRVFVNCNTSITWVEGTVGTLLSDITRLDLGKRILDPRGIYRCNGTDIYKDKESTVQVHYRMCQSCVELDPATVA", "test": "BLI (ForteBio Octet RED96), antibody on AHC sensor, 100 nM analyte, 1:1 model", "source_text": "(§1) In this experiment, the binding affinity of the bispecific antibody [0913] for human CD3D & CD3E heterodimer protein (Sino Biological, Cat #CT038-H2508H) and monkey CD3D & CD3E heterodimer protein (Acro biosystems, Cat #CDD-C52W4) was detected using ForteBio Octet RED96 according to the manufacturer's instructions.\n(§2) Briefly, an AHC sensor (ForteBio, Cat #18-5060) was placed in a running buffer (1×PBS, Hyclone, Cat #SH30256.01, containing 0.02% Tween 20, pH 7.0) and pre-equilibrated at room temperature for 10 min.\n(§3) The experimental data were fitted and calculated using a Fortebio Data Analysis software 1:1 binding model."}, "[2]": {"biological_target": "T2, Cynomolgus monkey CD3D & CD3E heterodimer protein (cynomolgus monkey, UniProt Q95LI5 22-117; Q95LI8 22-105)", "T2 construct": "same catalogue number; also called monkey CD3 protein (Acro biosystems, Cat #CDD-C52W4)", "T2 sequence (Q95LI5 22-117 limits assumed, chain 1 of 2)": "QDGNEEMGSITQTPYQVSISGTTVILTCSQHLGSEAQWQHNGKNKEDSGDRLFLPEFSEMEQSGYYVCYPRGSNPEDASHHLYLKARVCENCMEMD", "T2 sequence (Q95LI8 22-105 limits assumed, chain 2 of 2)": "as the sequence (P04234 22-105 limits assumed, chain 2 of 2) above, with I5V, N15K, I20V, S32T, D33N, I34N, T64A, S74N, V83L counted along it", "test": "BLI (ForteBio Octet RED96), antibody on AHC sensor, 100 nM analyte, 1:1 model", "source_text": "as §1, §2, §3"}, "[3]": {"biological_target": "T3, cynomolgus monkey GPRC5D protein (cynomolgus monkey, UniProt Q9NZD1 1-343 (human entry))", "T3 construct": "also called CynoGPRC5D; on HEK293T-CynoGPRC5D cells", "T3 chain": "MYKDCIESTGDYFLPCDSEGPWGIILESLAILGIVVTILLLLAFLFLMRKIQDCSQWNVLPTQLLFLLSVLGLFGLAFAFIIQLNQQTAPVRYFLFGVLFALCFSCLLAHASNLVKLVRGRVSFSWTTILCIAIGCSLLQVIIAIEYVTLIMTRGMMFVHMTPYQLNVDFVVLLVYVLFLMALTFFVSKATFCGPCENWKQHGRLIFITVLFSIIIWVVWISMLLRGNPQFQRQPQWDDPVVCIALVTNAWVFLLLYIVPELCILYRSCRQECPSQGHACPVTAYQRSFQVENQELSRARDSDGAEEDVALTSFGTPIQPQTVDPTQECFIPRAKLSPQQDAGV", "test": "flow cytometry, HEK293T-CynoGPRC5D cells (sheet: 293T-cynoGPRC5D), PE anti-human IgG Fc secondary, MFI", "procedure": "The HEK293T-CynoGPRC5D cell line shown in Table 2 was subjected to enzymatic digestion to obtain a single cell suspension. The single cell suspension was centrifuged at room temperature at 400×g, and then the medium was discarded. The cell pellet was washed once with PBS and then resuspended in the serially diluted bifunctional antibodies shown in Table 5 (at an initial concentration of 115.6 nM, 4-fold gradient dilution, 8 concentration points in total), and the cells were incubated at 4° C. for 30 min. The cells were washed once with PBS, and then fluorescent secondary antibody R-PE-conjugated AffiniPure Goat Anti-Human IgG, Fcγ Fragment Specific (Jackson ImmunoResearch, Cat #109-116-098) diluted in a 1:200 ratio was added. The cells were incubated in the dark at 4° C. for 30 min. The cells were washed twice with PBS and then resuspended, and finally, two-channel fluorescence signals were detected using a Beckman Cytoflex flow cytometer."}, "human GPRC5D protein": {"biological_target": "T4, human GPRC5D protein (human, UniProt Q9NZD1 1-345)", "T4 construct": "NCI-H929 cells express it endogenously in the functional assays; also called HuGPRC5D; huGPRC5D", "T4 sequence (Q9NZD1 whole entry)": "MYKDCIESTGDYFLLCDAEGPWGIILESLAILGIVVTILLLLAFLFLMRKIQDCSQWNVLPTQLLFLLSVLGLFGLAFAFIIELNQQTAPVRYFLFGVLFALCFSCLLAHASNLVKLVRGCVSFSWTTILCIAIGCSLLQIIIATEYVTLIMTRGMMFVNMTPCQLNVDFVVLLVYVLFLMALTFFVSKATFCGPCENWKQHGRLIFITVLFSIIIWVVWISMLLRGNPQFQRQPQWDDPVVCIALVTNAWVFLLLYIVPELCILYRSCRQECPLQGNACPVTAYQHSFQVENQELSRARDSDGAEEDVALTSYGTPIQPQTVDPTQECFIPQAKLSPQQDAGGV", "test": "flow cytometry, HEK293T cells stably expressing human GPRC5D (sheet: 293T-huGPRC5D), PE anti-human IgG Fc secondary, MFI", "procedure": "(2) Whether the anti-CD3/anti-GPRC5D bispecific antibodies in the present invention could bind to HEK293T cells stably expressing the human GPRC5D protein was determined by cell binding experiments. […] The plate was centrifuged at room temperature at 400×g, and then the supernatant was discarded. The cells were washed twice with PBS and centrifuged. The supernatant was discarded. The cell pellet was resuspended in fluorescent secondary antibody R-PE-conjugated AffiniPure Goat Anti-Human IgG, Fcγ Fragment Specific (Jackson ImmunoResearch, Cat #109-116-098) diluted in a 1:200 ratio. The cells were incubated in the dark at 4° C. for 30 min. The cells were washed twice with PBS, and 100 μL of PBS was added to each well to resuspend the cells. Fluorescence signals were detected using a Beckman Cytoflex flow cytometer."}, "[4]": {"biological_target": "T5, human MUC16 protein endogenously expressed on cells (human, UniProt Q8WXI7 1-14507)", "T5 construct": "whole, on cells; also called MUC16 on OVCAR3 cells; MUC16 in ovarian carcinoma tissue", "test": "flow cytometry, OVCAR3 cells (endogenous human MUC16), PE anti-human IgG Fc secondary, MFI; EC50 table under the plot, unit from the axis Conc.(nM)", "procedure": "(1) Whether the anti-CD3/anti-MUC16 bispecific antibodies in the present invention could bind to the MUC16 protein endogenously expressed on human ovarian carcinoma cells (OVCAR3) (Cell Bank of Type Culture Collection Committee of the Chinese Academy of Sciences, Cat #TCHu228) was determined by cell binding experiments.\nThe experiments were performed using flow cytometry. OVCAR3 cells were digested, centrifuged and collected. The cells were resuspended in a PBS solution, and seeded into a 96-well plate (Corning, Cat #3799) at 1×10⁵ cells/well. The 96-well plate was centrifuged and then the supernatant was discarded. 100 μL of the serially diluted test bispecific antibody (at a maximum concentration of 200 nM, 5-fold dilution from 100 nM, 9 concentration points in total) was added to the OVCAR3 cells. The plate was incubated at 4° C. for 30 min and centrifuged (1000 rpm, 5 min), and then the supernatant was discarded. 100 μL of PBS solution was added to each well, and the cells were washed twice. 100 μL of fluorescent secondary antibody R-PE-conjugated AffiniPure Goat Anti-Human IgG, Fcγ Fragment Specific (Jackson ImmunoResearch, Cat #109-116-098) diluted in a ratio of 1:200 was then added. The cells were incubated at 4° C. for 30 min. After the cells were washed twice with the PBS solution, 100 μL of PBS solution was added to each well to resuspend the cells, and finally, fluorescence signals were detected using a BD Accuri C5 (BD Bioscience) flow cytometer according to the manufacturer's instructions. REGN4018 was used as a positive control."}, "[5]": {"biological_target": "T6, rhesus monkey MUC16 protein (ECT_TM RhMuc16) on 293T cells (rhesus monkey)", "T6 chain": "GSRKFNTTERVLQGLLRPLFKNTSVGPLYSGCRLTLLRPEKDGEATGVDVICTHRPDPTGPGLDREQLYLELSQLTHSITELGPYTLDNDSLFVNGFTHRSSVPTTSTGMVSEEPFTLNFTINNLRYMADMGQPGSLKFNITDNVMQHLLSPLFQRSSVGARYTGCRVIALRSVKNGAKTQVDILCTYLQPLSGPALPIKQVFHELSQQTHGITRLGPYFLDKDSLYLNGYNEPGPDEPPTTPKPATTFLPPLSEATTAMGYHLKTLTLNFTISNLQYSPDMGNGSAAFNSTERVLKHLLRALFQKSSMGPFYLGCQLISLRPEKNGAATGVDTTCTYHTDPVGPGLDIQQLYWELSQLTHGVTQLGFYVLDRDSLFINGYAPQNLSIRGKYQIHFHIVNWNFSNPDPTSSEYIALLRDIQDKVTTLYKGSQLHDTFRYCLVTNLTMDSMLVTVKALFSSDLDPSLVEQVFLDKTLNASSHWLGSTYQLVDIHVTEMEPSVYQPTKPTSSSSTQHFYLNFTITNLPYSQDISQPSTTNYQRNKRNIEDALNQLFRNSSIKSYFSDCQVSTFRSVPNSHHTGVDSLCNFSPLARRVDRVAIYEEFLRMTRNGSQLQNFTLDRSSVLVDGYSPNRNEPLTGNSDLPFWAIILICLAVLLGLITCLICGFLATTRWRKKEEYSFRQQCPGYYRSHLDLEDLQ", "test": "flow cytometry, 293T/rhesus MUC16 cells as printed on the sheet and in the legend (the example, paragraph 611, speaks of cynomolgus MUC16), PE anti-human IgG Fc secondary, MFI; EC50 table under the plot, unit from the axis Conc.(nM)", "procedure": "Referring to the flow cytometry described above, the serially diluted test bispecific antibody (at an initial concentration of 100 nM, 5-fold dilution, 9 points) was added to the cells, and the plate was incubated at 4° C. for 30 min. The cells were washed twice with PBS, and then fluorescent secondary antibody R-PE-conjugated AffiniPure Goat Anti-Human IgG, Fcγ Fragment Specific was added. The cells were incubated at 4° C. for 30 min. The cells were washed twice with PBS and then resuspended, and finally, fluorescence signals were detected using a BD Accuri C5 (BD Bioscience) flow cytometer."}},
  "data": [
    {"binder": "B1", "values": [
      {"measurement": "Kd", "setting": "[1]", "value": 727, "unit": "nM"},
      {"measurement": "koff", "setting": "[1]", "value": 0.0158, "unit": "s⁻¹"},
      {"measurement": "kon", "setting": "[1]", "value": 21700, "unit": "M⁻¹ s⁻¹"},
      {"measurement": "Kd", "setting": "[2]", "value": 75.9, "unit": "nM"},
      {"measurement": "koff", "setting": "[2]", "value": 0.00631, "unit": "s⁻¹"},
      {"measurement": "kon", "setting": "[2]", "value": 83200, "unit": "M⁻¹ s⁻¹"},
      {"measurement": "EC50 (read off the curve)", "setting": "[3]", "value": "~8", "unit": "nM"},
      {"measurement": "EC50 (read off the curve)", "setting": "human GPRC5D protein", "value": "~3", "unit": "nM"}
    ]},
    {"binder": "B2", "values": [
      {"measurement": "EC50", "setting": "[4]", "value": 1.45, "unit": "nM"},
      {"measurement": "EC50", "setting": "[5]", "value": 3.74, "unit": "nM"}
    ]}
  ]
}
